Common to all, as to conditions: remark: other sources report otherwise
Experiment [1] concerns the target T1, HLA-DR DRB1*0404 (human).
T1 chain 1: not shown
T1 chain 2: not shown
In words: radioligand competition, purified HLA-DR.

In experiment [2] the target is T2, HLA-DR DRB1*1302 (human).
T2 chain 1: not shown
T2 chain 2: not shown
The experiment can be described thus: radioligand competition, purified HLA-DR.

For experiment [3], the target named is T3, HLA-DR DRB1*1101 (human).
T3 chain 1: not shown
T3 chain 2: not shown
The experiment can be described thus: radioligand competition, purified HLA-DR.

The target of experiment [4] is T4, HLA-DR DRB4*0101 (human).
T4 chain 1: not shown
T4 chain 2: not shown
The experiment can be described thus: radioligand competition, purified HLA-DR. In general terms: In a radioligand displacement assay an active substance lowers the binding of a labelled ligand.

Experiment [5] addresses T1, HLA-DR DRB1*0404 (human). The experiment can be described thus: radiolabeled-peptide inhibition, purified HLA-DR.
The target of experiment [6] is T2, HLA-DR DRB1*1302 (human). In words: radiolabeled-peptide inhibition, purified HLA-DR.
Experiment [7] concerns the target T3, HLA-DR DRB1*1101 (human). In words: radiolabeled-peptide inhibition, purified HLA-DR.
For experiment [8], the target named is T5, HLA-DR DRB1*0701 (human).
T5 chain 1: not shown
T5 chain 2: not shown
The experiment can be described thus: radiolabeled-peptide inhibition, purified HLA-DR.

The target in experiment [9] is T6, HLA-DR DRB1*0301 (human).
T6 chain 1: not shown
T6 chain 2: not shown
In words: radiolabeled-peptide inhibition, purified HLA-DR.

Experiment [10] deals with T7, HLA-DR molecule DRB1*0101 (human).
T7 chain 1: not shown
T7 chain 2: not shown
The experiment can be described thus: radioligand inhibition, purified HLA-DR.

The target of experiment [11] is T8, HLA-DR molecule DRB5*0101 (human).
T8 chain 1: not shown
T8 chain 2: not shown
The experiment can be described thus: radioligand inhibition, purified HLA-DR.

Experiment [12] deals with T9, HLA-DR molecule DRB1*0404 (human).
T9 chain 1: not shown
T9 chain 2: not shown
In words: radioligand inhibition, purified HLA-DR.

Experiment [13] has as its target T10, HLA-DR DRB1*0401 (human).
T10 chain 1: not shown
T10 chain 2: not shown
The experiment can be described thus: radiolabeled-peptide inhibition, purified HLA-DR.

For experiment [14], the target named is T11, HLA-DR DRB1*0405 (human).
T11 chain 1: not shown
T11 chain 2: not shown
In words: radiolabeled-peptide inhibition, purified HLA-DR.

The target of experiment [15] is T4, HLA-DR DRB4*0101 (human). In words: radiolabeled-peptide inhibition, purified HLA-DR.
For experiment [16], the target named is T12, HLA-DR DRB1*0101 (human).
T12 chain 1: not shown
T12 chain 2: not shown
In words: radiolabeled-peptide inhibition, purified HLA-DR.

Experiment [17] addresses T13, HLA-DR DRB5*0101 (human).
T13 chain 1: not shown
T13 chain 2: not shown
The experiment can be described thus: radiolabeled-peptide inhibition, purified HLA-DR.

The target in experiment [18] is T14, HLA-DR DRB1*1201 (human).
T14 chain 1: not shown
T14 chain 2: not shown
In words: radiolabeled-peptide inhibition, purified HLA-DR.

The target in experiment [19] is T12, HLA-DR DRB1*0101 (human). In words: radioligand inhibition, purified HLA-DR.
Experiment [20] has as its target T1, HLA-DR DRB1*0404 (human). The experiment can be described thus: radioligand inhibition, purified HLA-DR.
Experiment [21] has as its target HLA-DR DRB3*0101 (human). The experiment can be described thus: radioligand inhibition, purified HLA-DR.
In experiment [22] the target is T14, HLA-DR DRB1*1201 (human). In words: radioligand inhibition, purified HLA-DR.
Experiment [23] deals with T4, HLA-DR DRB4*0101 (human). In words: radioligand inhibition, purified HLA-DR.
The target in experiment [24] is T13, HLA-DR DRB5*0101 (human). The experiment can be described thus: radioligand competition, purified HLA-DR.
The target in experiment [25] is T11, HLA-DR DRB1*0405 (human). In words: radioligand competition, purified HLA-DR.
Experiment [26] deals with T5, HLA-DR DRB1*0701 (human). In words: radioligand competition, purified HLA-DR.
The target of experiment [27] is T6, HLA-DR DRB1*0301 (human). The experiment can be described thus: radioligand competition, purified HLA-DR.
Experiment [28] deals with T15, HLA-DR molecule DRB1*0802 (human).
T15 chain 1: not shown
T15 chain 2: not shown
In words: radioligand inhibition, purified HLA-DR.

For experiment [29], the target named is T16, HLA-DR molecule DRB1*0405 (human).
T16 chain 1: not shown
T16 chain 2: not shown
In words: radioligand inhibition, purified HLA-DR.

In experiment [30] the target is T17, HLA-DR DRB1*0802 (human).
T17 chain 1: not shown
T17 chain 2: not shown
The experiment can be described thus: radioligand inhibition, purified HLA-DR.

Experiment [31] concerns the target T2, HLA-DR DRB1*1302 (human). In words: radioligand inhibition, purified HLA-DR.
Experiment [32] deals with T6, HLA-DR DRB1*0301 (human). The experiment can be described thus: radioligand inhibition, purified HLA-DR.

Consider TAKLTIESTPFNVAE [CEA.33 (peptide 9019.0106)], for which the 50% inhibitory concentration (IC50) – broadly, the concentration that gives 50% inhibition – in [1] turned out to be 0.041 µM; in [2], 0.035 µM; in [3], 6 µM; in experiment [4], 0.053 µM.

Turning to PESFDGDPASNTAPL [9019.0048], the half-inhibitory concentration (IC50) in experiment [5] amounted to 9.02 µM; in experiment [6] it was 3.91 µM; in experiment [7], 12.6 µM; in experiment [8], 2.82 µM; in experiment [9] it was 0.989 µM.

For the molecule LREVRAVTSANIQEF [Peptide 9019.0046 (Her2/neu.350)], the half-maximal inhibitory concentration (IC50) was 0.017 µM in [10], 0.094 µM in experiment [11] and 0.0082 µM in experiment [12].

For ILLVVVLGVVFGILI [9019.0068], the IC50 in [5] came out at 3.53 µM; in experiment [13] it was 0.635 µM; in experiment [6], 0.478 µM; in [14], 0.376 µM; in experiment [7] it was 2.46 µM; in experiment [8] it was 0.78 µM. In experiment [15], this molecule came in with a 50% inhibitory concentration (IC50) of 11 µM.

Consider KIPVAIKVLRENTSP [1622.03], for which the half-inhibitory concentration (IC50) in experiment [16] came out at 1.51 µM; in experiment [17], 1.51 µM; in experiment [5], 0.125 µM; in experiment [13] it was 3.86 µM; in experiment [7], 4.11 µM; in experiment [15] it was 7.81 µM.

For the molecule CYGLGMEHLREVRAV [9019.0044], the IC50 in experiment [16] came out at 0.13 µM; in [17], 3.78 µM; in experiment [5], 0.493 µM; in experiment [13], 1.03 µM; in experiment [18] it was 19 µM; in [14] it was 5.12 µM. The 50% inhibitory concentration (IC50) amounted to 0.271 µM in experiment [8], 0.444 µM in [15] and 0.265 µM in experiment [9].

Take CHLFYNEQQEARGVH [Peptide 9019.0023]: the IC50 in experiment [19] came out at 2.49 µM; in experiment [20], 3.19 µM; in experiment [21] it was 18.9 µM; in experiment [22] it was 1.85 µM; in [23] it was 5.31 µM.

On to FYTLHVIKSDLVNEE [CEA.119 (peptide 9019.0114)], for which the IC50 in [24] amounted to 4.5 µM; in experiment [1] it was 0.169 µM; in experiment [25], 0.041 µM; in [26] it was 0.056 µM; in experiment [4], 0.022 µM; in experiment [27], 0.08 µM.

For LKSGMKELAVFREKV [Peptide 9019.0185 (IGFBP2.184)], the IC50 in experiment [28] was determined as 0.26 µM; in experiment [29], 0.034 µM.

For RWCIPWQRLLLTASL [CEA.10 peptide 9019.0104], the IC50 in experiment [30] stood at 0.263 µM; in experiment [31], 2.33 µM; in [22], 1.56 µM; in experiment [32] it was 7.86 µM.

For the origin of these results see patent US20100310640A1.
